{
  "source": "patent US20230295344A1",
  "about": "(published 2023)",
  "binders": {"B1": {"name": "murine monoclonal anti-DPP3 antibody AK1967 (clone 1967) (antibody, V domains shown)", "VH": "QVTLKESGPGILQPSQTLSLTCSFSGFSLSTSGMSVGWIRQPSGKGLEWLAHIWWNDNKSYNPALKSRLTISRDTSNNQVFLKIASVVTADTGTYFCARNYSYDYWGQGTTLTVSS", "VL": "DVVVTQTPLSLSVSLGDPASISCRSSRSLVHSIGSTYLHWYLQKPGQSPKLLIYKVSNRFSGVPDRFSGSGSGTDFTLKISRVEAEDLGVYFCSQSTHVPWTFGGGTKLEIK", "notes": "Acridinium-labelled in the plate assays"}},
  "experiment_in_all_cases": "labelled AK1967 on biotinylated peptide on avidin plate, chemiluminescence",
  "key": {"[1]": {"target": "T1, epitope mapping peptide #2", "T1 peptide": "Biotin-AFNFDQETVINPETGEQIQ", "procedure": "(§1) These peptides include the sequence of the full immunization peptide (SEQ ID No. 2) or fragments thereof, with stepwise removal of one amino acid from either C- or N-terminus (see table 5 for a complete list of peptides).\n(§2) High binding 96 well plates were coated with 2 µg Avidin per well (Greiner Bio-One international AG, Austria) in coupling buffer (500 mM Tris-HCl, pH 7.8, 100 mM NaCl). Afterwards plate were washed and filled with specific solutions of biotinylated peptides (10 ng/ well; buffer – 1xPBS with 0.5% BSA)\n(§3) The plates were filled with 200 µl of labeled and diluted detection antibody (tracer) and incubated for 4 h at room temperature. Unbound tracer was removed by washing 4 times with 350 µl washing solution (20 mM PBS, pH 7.4, 0.1 % Triton X-100). Well-bound chemiluminescence was measured by using the Centro LB 960 luminometer (Berthold Technologies GmbH & Co. KG)."}, "[2]": {"target": "T2, epitope mapping peptide #12", "T2 construct": "final K stands where DPP3 has R", "T2 peptide": "PETGEQIQSWYK(Biotin)", "procedure": "as §1, §2, §3"}, "[3]": {"target": "T3, epitope mapping peptide #5", "T3 peptide": "Biotin-AFNFDQETVINPETGE", "procedure": "as §1, §2, §3"}, "[4]": {"target": "T4, epitope mapping peptide #6", "T4 peptide": "Biotin-AFNFDQETVINPETG", "procedure": "as §1, §2, §3"}, "[5]": {"target": "T5, epitope mapping peptide #9", "T5 peptide": "Biotin-AFNFDQETVINP", "procedure": "as §1, §2, §3"}, "[6]": {"target": "T6, epitope mapping peptide #3", "T6 peptide": "Biotin-AFNFDQETVINPETGEQI", "procedure": "as §1, §2, §3"}, "[7]": {"target": "T7, epitope mapping peptide #10", "T7 peptide": "Biotin-AFNFDQETVIN", "procedure": "as §1, §2, §3"}, "[8]": {"target": "T8, epitope mapping peptide #17", "T8 construct": "final K stands where DPP3 has R", "T8 peptide": "ETVINPETGEQIQSWYK(Biotin)", "procedure": "as §1, §2, §3"}, "[9]": {"target": "T9, epitope mapping peptide #8", "T9 peptide": "Biotin-AFNFDQETVINPE", "procedure": "as §1, §2, §3"}, "[10]": {"target": "T10, epitope mapping peptide #1 (N-terminal biotin)", "T10 peptide": "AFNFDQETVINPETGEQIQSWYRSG", "procedure": "as §1, §2, §3"}, "[11]": {"target": "T11, epitope mapping peptide #16", "T11 construct": "final K stands where DPP3 has R", "T11 peptide": "TVINPETGEQIQSWYK(Biotin)", "procedure": "as §1, §2, §3"}, "[12]": {"target": "T12, epitope mapping peptide #13", "T12 construct": "final K stands where DPP3 has R", "T12 peptide": "NPETGEQIQSWYK(Biotin)", "procedure": "as §1, §2, §3"}, "[13]": {"target": "T13, epitope mapping peptide #4", "T13 peptide": "Biotin-AFNFDQETVINPETGEQ", "procedure": "as §1, §2, §3"}, "[14]": {"target": "T14, epitope mapping peptide #14", "T14 construct": "final K stands where DPP3 has R", "T14 peptide": "INPETGEQIQSWYK(Biotin)", "procedure": "as §1, §2, §3"}, "[15]": {"target": "T15, epitope mapping peptide #11", "T15 construct": "final K stands where DPP3 has R", "T15 peptide": "ETGEQIQSWYK(Biotin)", "procedure": "as §1, §2, §3"}, "[16]": {"target": "T16, epitope mapping peptide #15", "T16 construct": "final K stands where DPP3 has R", "T16 peptide": "VINPETGEQIQSWYK(Biotin)", "procedure": "as §1, §2, §3"}},
  "note": "Ends that are not written are not given here. * marks the point of attachment. Biotin = O=C1N[C@H]2[C@H](CS[C@H]2CCCCC(=O)*)N1",
  "data": [
    {"binder": "B1", "values": [
      {"measurement": "binding result", "setting": "[1]", "result": "binds"},
      {"measurement": "binding result", "setting": "[2]", "result": "no binding"},
      {"measurement": "binding result", "setting": "[3]", "result": "binds"},
      {"measurement": "binding result", "setting": "[4]", "result": "binds"},
      {"measurement": "binding result", "setting": "[5]", "result": "no binding"},
      {"measurement": "binding result", "setting": "[6]", "result": "binds"},
      {"measurement": "binding result", "setting": "[7]", "result": "no binding"},
      {"measurement": "binding result", "setting": "[8]", "result": "binds"},
      {"measurement": "binding result", "setting": "[9]", "result": "no binding"},
      {"measurement": "binding result", "setting": "[10]", "result": "binds"},
      {"measurement": "binding result", "setting": "[11]", "result": "binds"},
      {"measurement": "binding result", "setting": "[12]", "result": "no binding"},
      {"measurement": "binding result", "setting": "[13]", "result": "binds"},
      {"measurement": "binding result", "setting": "[14]", "result": "binds"},
      {"measurement": "binding result", "setting": "[15]", "result": "no binding"},
      {"measurement": "binding result", "setting": "[16]", "result": "binds"}
    ]}
  ]
}
